Results published in paper PMC7105311, “Structure and function of Bs164 β-mannosidase from Bacteroides salyersiae the founding member of glycoside hydrolase family GH164” (The Journal of Biological Chemistry, 2019).

Legend:
purified protein = substrate: Cc1cc(=O)oc2cc(O[C@@H]3O[C@H](CO)[C@@H](O)[C@H](O)[C@@H]3O)ccc12; assay: purified protein; format: biochemical, Bacteroides salyersiae; conditions: 80 mM MES pH 5.5, 160 mM NaCl, 25 °C
[1] = substrate: O=[N+]([O-])c1ccc(O[C@@H]2O[C@H](CO)[C@@H](O)[C@H](O)[C@@H]2O)cc1; assay: stopped assay, p-nitrophenol absorbance; format: biochemical, Bacteroides salyersiae; conditions: 80 mM MES pH 5.5, 160 mM NaCl, 25 °C
Description: stopped assay, p-nitrophenol absorbance on Bs164

B1: Bs164 (Bacteroides salyersiae CL02T12C01) (protein)
chain: ERISKQSTPFVGAQIFIEPGQTQEQIEQWFKLLAESNMTTCRIRMFGKYMKTPSGTYDFTLFDRAFKLADKYHIKVYATLFPDTEFTDVGGFKFPHSREHQKEVEDYIKNVVSHFSQYKNLAAWVLINEPGTPNLPFNEPFTKERFSDWKKEHNFSEYNEKGYPVLNFEKENFIIDYHNWYLNWLANQVRLYDKQHDLHVNPHNVFKLSGLYDFPTWRTFLNSLGGSAHASWHFGYFPRKAYTVAMSANAELIRSGAGELPWLMTELQGGNNLYSGANPLCPTAEEIIQWLWINFATEAKGGIFWSFNARSTAAEAGEWAMINFKNKSSDRLIAAATIGKFITENVKMMSNIKTLNSGISILYNHESMWVEAAQTRGKLNGNGRSIGAVMCSPLSYFEALSETGLQANFKEIKEFDFSLNDYTDQVIILSHQIALDNKVIKQLESFVEKGGTLIADGLTGYYDYQAHSTVVSGFALENLFGSYPIEYKIKENLFSLDFEKDNYKLPAHLWKGTIETSKATPIMDKEGECIACINQYGKGKVFWIPSPIALGARESKDFSELSKLTVSLLPNKILNDNPHFDKHYKDVMMKSFKSNGTMYSLIINKSASVQTVDIVGGKGKAFILFANKNAHSTANKLTISPEETVIIKWKNN
notes: tag cut by 3C protease for kinetics, His6-tagged for crystals
Protein B1 has a Km (purified protein) of 1050 ± 80 µM, a kcat (purified protein) of 1.8 ± 0.05 s⁻¹ and a kcat/Km (purified protein) of 1700 ± 100 M⁻¹ s⁻¹. For the same protein, the Km [1] was 3600 ± 800 µM, the kcat [1] was 40 ± 3 s⁻¹ and the kcat/Km [1] was 11000 ± 3000 M⁻¹ s⁻¹.
